The binders below were run against SARS-COV-2 RBD extracellular domain expressed with a C-terminal myc-myc-hexahistidine tag (SARS-COV-2 RBD-mmH) (SARS-CoV-2) (assay: SPR Biacore, mAb captured on anti-hFc, RBD-mmH analyte, 37 C).

Binder	Kd [nM]	koff [s⁻¹]	kon [M⁻¹ s⁻¹]	t½ [min]
mAb14282 (antibody, V domains shown) VH: QVQLVQSGAEVKKPGASVKVSCKASGYIFTDHYMHWVRQAPGQGLEWMGWINPNSGATNYAQNFQGRVTMTRDTSIITVYMELSRLRSDDTAVYYCARDSSPYMIRYTMDVWGQGTTITVSS VL: QSALTQPASVSGSPGQSITISCTGTSSDVGSYNLVSWYQQHPGKAPKLMIYELTKRPSGVSNRFSGSKSGNTASLTISGLQAEDEADYYCSSYRGSVTDVVFGGGTKLTVLG	5.37	0.0106	1.98e+06	1.1
mAb15160 (antibody, V domains shown) VH: EVQLVESGGGLVQPGGSLRLSCSASGFTFSRYAMYWVRQAPGKGLEYVSAISSDGGSTYDADSVKGRFTISRANSKNTLYLQMSSLRAEDTAVYYCVKGLRELLYYYYGMDVWGQGTTVTVSS VL: DIQMTQSPSSLSASVGDRVTITCRAGQSISSFLNWYQQKPGKAPKLLIYAASSLQSGVPSRFSGSGSGTDFTLTISSLQPEDFATYYCQQSYITPFTFGPGTKVDIKR	7.79	0.00194	250000	5.9
mAb15161 (antibody, V domains shown) VH: EVQLVESGGGLVQPGGSLRLSCAASGFTFSSYEMNWVRQAPGKGLEWVSYISSSGSILYYADSVKGRFTASRDNAKNSLYLQMNSLRAEDTGVYYCARREYQLLRPFEFWGQGTLVTVSS VL: not shown	3.29	0.000866	263000	13.3
mAb14234 (antibody, V domains shown) VH: QVQLVESGGGVVQPGRSLRLSCAASGFTFSSYGIHWVRQAPGKGLEWVAIIWYDGSEKYYADSVKGRFTISRDNSKNTLFLQMNSLEAEDTAVYYCARGPDLLTGYYNYFYYGMDVWGQGTTVTVSS VL: QSVLTQPPSVSGAPGQRVTISCTGSSSNIGIGYDVHWYQQLPGTVPKLLIYGNTNRPSGVPDRFSGSKSGTSASLAITGLQAEDEADYYCQSYDSSLSSYVFGTGTKVTVLG	22.3	0.0119	534000	1
mAb14281 (antibody, V domains shown) VH: QVQLVQSGADVKKPGASVKVSCKTSGYIFTGYYIHWVRQAPGQGLEWMGWINPNSGGTNSAQKFQGRVTMTRDTSISTVYMELSRLRSDDTAVYYCAKSNSFSVLDYNFDYWGQGTLVTVSS VL: SSELTQDPAVSVALGQTVRITCQGDSLRSYYASWYQQKPGQAPVLVIYDKNNRPSGIPDRFSGSSSGNTASLTITGAQAEDEADYYCNSRDSSRNHLVVFGGGTKLTVLG	5.2	0.00582	1.12e+06	2
mAb14286 (antibody, V domains shown) VH: QVQLVQSGAEVKKPGASVKVSCKASGYTFTDYFIHWVRQAPGQGLEWMGWINPTSGGTNYAQKFRGRVTMTRDTSISTAYVELSRLRSDDTALYYCARDLPFYSDTKQFDYWGQGTLVTVSS VL: QSALTQPASVSGYPGQSITISCTGTSSDVGGYNYVSWYQQHPGKAPKLMIFDVSNRPSGVSNRFSGSKSGNTASLTFSGLQAEDEADYYCSSYTSSSTLVFGGGTKLTVLG	3.07	0.0104	3.38e+06	1.1
mAb14280 (antibody, V domains shown) VH: QVQLVQSGAEVKKPGASVRVSCKASGYTFTGNYIHWVRQAPGQGLEWMAWINPNSGGKNYAQKFQGRVTLTRDTSVNTAYMELSRLRSDDTAMYYCARDVNYNILTGPGGLWGQGTLVTVSS VL: QSALTQPPSASGSPGQSVTISCTGTSSDVGGYNFVSWYQQHPGKAPKLMIYEVSKRPSGVPDRFSGSKSGNTASLTVSGLQAEDEADYYCSSYAGSNNFVFGTGTKVTVLG	16.2	0.0248	1.53e+06	0.5
mAb15163 (antibody, V domains shown) VH: EVQLVETGGGLIQPGESLRLSCAASGFIVSTNYMNWVRQAPGKGLEWVSVIYRGGSTYYADSVKGRFTISRDNSKNTLFLQMNSLRAEDTAVYYCARGHEDFDYDTPASGAFDIWGQGTMVTVSS VL: QSALTQPPSASGSPGQSVTISCTGTSSDVGGHNYVSWYQQHPGKAPKVMIYEVSKRPSGVPDRFSGSKSGNTASLTVSGLQAEDEADYYCSSYAGSNKFVFGTGTKVTVLG	1.78	0.000387	218000	29.9
mAb15157 (antibody, V domains shown) VH: EVQLVESGGALVQPGGSLRLSCAASGFPFTIYAMTWVRQAPGKGLEWVSVITGSGDSTYYADSVKGRFTISRDNSKNTLYLQMNSLRAEDTAVYYCVKTGEGFFYYYYGMDVWGQGTTVTVSS VL: QSVLTQPPSVSAAPGQKVTISCSGSSSNIGNSYISWYQQLPGTAPKLLIYVNNKRPSGIPDRFSGSKSGTSATLGITGLQTGDEADYYCGTWDSSLSAGVFGSGTKVTVLG	11.6	0.00399	344000	2.9
mAb15158 (antibody, V domains shown) VH: EVQLVESGGGLVQPGGSLRLSCAASGFSFSSNWMSWVRQAPGKGLEWVGNINQDGSEKYYVDSVEGRFTISRDNAKKSLYLQMNSLRAEDTAVYYCARDLGVLWFGDFVDWGQGALVTVSS VL: DIQMTQSPSSLSASVGDRVTITCRASQAISNSLAWYQQKPGKAPKLLLYAASTLESGVPSRFSGSGSGTDYTLTISSLQPEDFATYYCLQYYGSPRTFGQGTKVEIKR	1.65	0.000207	126000	55.7
mAb14292 (antibody, V domains shown) VH: EVQLVESGGGLVQPGGSLRLSCVASGFAFSTYEMNWVRQAPGKGLEWVSYISSSGSTIYYADSVKGRLTISRDNVKNSLYLQMNSLRVEDTAIYYCARDAIRNNDILTDPATFDPWGQGTLVTVSS VL: not shown	60.7	0.0218	359000	0.5
mAb15159 (antibody, V domains shown) VH: EVQLVESGGGLVQPGGSLRLSCAASGITVSSNYMTWVRQAPGKGLEWVSLIYSGGSTFYADSVRGRFTISRDNSKNTLYLQMNSLRAEDTAVYYCARDLVVYGMDVWGQGTTVTVSS VL: DIQLTQSPSSLSASVGDRVTITCRASQGISSYLAWYQQKPGKAPKLLIYAASTLQSGVPSRFSGSGSGTDFTLTISSLQPEDFATYYCQHLNSDPHTFGQGTKLEIKR	1.21	0.000176	146000	65.6
mAb15156 (antibody, V domains shown) VH: QLQLQESGPGLVKSSETLSLTCTVSASITGSTYYWGWIRQPPGKGLEWIGSIYYSGTTYYKASLKSRVTISVDTSKNQFSLKLTSVTVADTAVYYCVSHLLGNYHKYGMDVWGQGTTVTVSS VL: not shown	14.4	0.00535	373000	2.2
mAb14285 (antibody, V domains shown) VH: QVQLVQSGAEVKKPGASVKVSCKASGYTFTGYFIHWVRQAPGQGLEWMGWISPISGGTNYAQKFQGRVTVTRDTSITTAYMELSRLTSDDTAVYHCAREGGTWKGDFDYWGQGTLVTVSS VL: QSALTQPASVSGSPGQSITISCTGTSSDVESYNLVSWYQQHPGKAPKLMIYEGSKRPSGVSNRFSGSKSGNTASLTISGLQAEDEADYYCSSYAGSSTWVFGGGTKLTVLG	13.1	0.0274	2.09e+06	0.4
mAb15164 (antibody, V domains shown) VH: EVQLVESGGGLVQPGGSLRLSCAASGFAVSSNYMTWVRQAPGKGLEWVATIYSGDSTYYADSVKGRFTISRHNSKNTLSLQMNSLRADDTAIYYCARLSGVLSGTYNGAFDIWGQGTMVTVSS VL: QSALTQPASVSGSPGQSITISCTGTSSDFGNYNIVSWYQQHPGQAPKVMIYEGNKRPSGVSNRFSGSKSGHTASLTISGLQAEDEADYYCSSYAGSSTWVFGGGTKLTVLG	6.33	0.00179	283000	6.5
mAb15162 (antibody, V domains shown) VH: EVQLVETGGGLIQPGGSLRLSCAASEFIVSRNYMSWVRQAPGKGLEWVSLIYSGGSTYYADSVKGRFTISRDNSKNILYLQMNSLRAEDTAVYYCARDRGGISDYWGQGTLVTVSS VL: DIQMTQSPSSLSASVGDRVTITCQASQDINKYLNWFQQKPGKAPKLLIYDASNLETGVPSRFSGSGSGTDFTFTISSLQPEDIATYYCQQYDNLPRTFGQGTKLEIKR	29.2	0.00299	103000	3.9
mAb14232 (antibody, V domains shown) VH: QITLKESGPTLVKPTQTLTLTCTFSGFSLSASGVGVGWIRQPPGKALEWLALIYWDDDKRYSPSLKSRLTITKDTSKNQVVLTMTNMDPVDTATYYCAQHKVATIFDYWGQGTLVTVSS VL: QSALTQPPSASGSPGQSVTISCTATSSDVGNYNYVSWYQQHPGKAPKLMIYEVTKRPSGVPDRFSGSKSGNTASLTVSGLQAEDEADYYCSSYAGSWGVFGGGTKLTVLG	7.92	0.0372	4.69e+06	0.3
mAb14230 (antibody, V domains shown) VH: EVQLVESGGGLIQPGRSLRLSCAASGFTFDDYAMHWVRQAPGKGLEWVSGISWNSVSIDYADSVKGRFTISRDNAKNSLYLQMTSLTVEDTALYYCAKAFGYETLTGSDYFAYWGPGTLVTVSS VL: EIVLTQSPGTLSLSPGERATLSCRASQTVISTYLAWYQQKPGQSPRLLIYGASSRATGIPDRFSGSGSGTDFTLTISRLEPEDFAVYYCQQYGSSPQLTFGGGTKVEIKR	7.61	0.00876	1.15e+06	1.3
mAb14256 (antibody, V domains shown) VH: QVQLQESGPGLVKPSETLSLTCTVSGGSISSHYWSWIRQPPGKGLEWIGYIYYSGSSNYNPSLKSRVTISVDTSKNQFSLKLNSVTAADTAVYYCARHYDILTGFDWFDPWGQGTLVTVSS VL: QSVLTQPPSVSGAPGQRVTISCTGSSSNIGTHYDVHWYQQLPGTAPKLLIYGNSNRPSGVPDRFSGSKSGTSASLAITGLQAEDEADYYCQSFDNSLTAPYVFGTGTKVTVLG	8.24	0.0115	1.4e+06	1

— US20260069689A1 (Regeneron, published 2026)
